Article PMC3167946

Biological target: Envelope glycoprotein gp120Bal (HIV-1 isolate Bal)
Assay: ELISA

In the case of “human germline HV control scFv (human germline b12 HV recombined with human mature b12 D(J)-segments and VL)”, the EC50 is reported as 0.0241 µM.

“macaque germline HV control scFv (macaque germline b12 HV recombined with human mature b12 D(J)-segments and VL)” was tested, and the EC50 was 2.5 µM.
